The record followed here is patent publication US12667624B2, “GIP derivative, long-acting conjugate thereof, and pharmaceutical composition comprising same” (HANMI PHARM. CO., LTD., priority 2020, dated 2026).

The target of one experiment is T1, human GIP receptor (Homo sapiens, UniProt P48546).
T1 construct: expressed in transfected cells; host or cells: CHO (Chinese hamster ovary)
T1 sequence (P48546 22-466): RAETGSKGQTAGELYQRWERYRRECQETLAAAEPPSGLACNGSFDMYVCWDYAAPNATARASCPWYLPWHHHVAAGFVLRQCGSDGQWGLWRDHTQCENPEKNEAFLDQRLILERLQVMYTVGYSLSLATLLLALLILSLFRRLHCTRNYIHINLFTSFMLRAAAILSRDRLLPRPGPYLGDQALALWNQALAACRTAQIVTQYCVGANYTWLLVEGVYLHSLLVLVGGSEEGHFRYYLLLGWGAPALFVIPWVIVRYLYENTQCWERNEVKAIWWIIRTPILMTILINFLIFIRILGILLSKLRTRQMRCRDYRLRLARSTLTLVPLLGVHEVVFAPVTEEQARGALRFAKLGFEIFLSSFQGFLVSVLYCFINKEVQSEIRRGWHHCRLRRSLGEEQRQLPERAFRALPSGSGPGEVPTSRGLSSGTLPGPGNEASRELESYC
The experiment can be described thus: In vitro activity of long-acting GIP conjugates: cAMP accumulation in CHO cells expressing human GIP receptor. The format is cell-based. Conditions: relative potency from cAMP EC50, CHO cells expressing human GIP receptor; PEG-immunoglobulin Fc conjugates. Here is the method: To measure the activity of the long-acting GIP conjugates prepared in Example 3, a method of measuring cell activity in vitro using a cell line transformed with the GIP receptor was used in the same manner as in Example 2.
In detail, to measure the activity of the long-acting GIP derivatives in the human GIP receptors, human GIP was serially diluted from 16 nM to 0.000015 nM by 4 folds, and the long-acting GIP derivatives prepared in Example 1 were each serially diluted from 50 nM to 0.000048 nM by 4 folds. The culture medium was removed from the cultured CHO cells where the human GIP receptors were expressed, 5 μl of each of the serially diluted materials was added to the cells, and then, 5 μl of buffer containing cAMP antibody was added thereto, followed by incubation at room temperature for 15 minutes. Next, the cells were lysed by adding 10 μl of detection mix containing cell lysis buffer, and then allowed for a reaction at room temperature for 90 minutes. The cell lysate obtained by the completion of the reaction was applied to the LANCE cAMP kit (PerkinElmer, USA) to calculate the EC50 value through the accumulated cAMP to be compared with each other.
Background: Changes in cAMP serve as a functional read-out for many G protein-coupled receptors.

In experiment [1] the test system is THP-1 cell line. The experiment is described as follows: Expression of inflammation-related genes in LPS-treated THP-1 cell line (real-time PCR). The format is cell-based, human. As to conditions: THP-1, LPS 1 μg/mL; native GIP 10 μM, long-acting GIP derivative 1 or 10 μM; FIG. 2A. From the text: To confirm the in vitro anti-inflammatory effect of the long-acting GIP derivative conjugate on vasculitis, a human monocyte/macrophage cell line, THP-1 cell line, was used. A macrophage is known to secrete cytokines and chemokines in the early stage of infection in vasculitis-infected tissue, induce the progress of inflammation by utilizing other immune cells, and form giant cells. Therefore, identification of the anti-inflammatory effect in macrophages is referred to as an appropriate in vitro system for evaluating the efficacy on vasculitis.
The THP-1 cell line was cultured in RPMI 1640 medium supplemented with 10% fetal bovine serum (FBS), 100 μg/mL of streptomycin, 100 U/mL of penicillin, and […] of β-mercaptoethanol, under conditions of a temperature of 37° C. and 5% carbon dioxide. […] For use as the long-acting GIP derivative, the long-acting GIP conjugate (SEQ ID NO: 17) prepared in Example 3 was used.
RNA was isolated from the completely treated THP-1 cell line by using the RNeasy Mini Kit (Qiagen, US), and then cDNA was synthesized by using the iScript™ cDNA Synthesis Kit (Bio-rad, U.S.). The synthesized cDNA was referred to confirm the expression levels of inflammation-related genes by using the QuantStudio 6 Flex Real-Time PCR System (Applied Biosystems, U.S.). Here, the Delta Ct method was used, and beta-actin was used as a housekeeping gene. […]
For orientation: Real-time PCR tracks product formation cycle by cycle.

Experiment [2] deals with THP-1 cell line. The experiment can be described thus: TNF-α concentration in medium of LPS-treated THP-1 cell line (ELISA). The experiment is classed as cell-based, human. As to conditions: THP-1, LPS 0.1 pg/mL; native GIP 1 μM, long-acting GIP derivative 0.1 μM or 1 μM; FIG. 2B. From the text: Here, the medium was quantified by using Human TNF alpha ELISA Kit (Abcam, US).
Background: In an ELISA, binding on a coated surface is turned into a signal by an enzyme label.

Non-standard residues stand in square brackets, D forms with d. No end group written: not given here. Aib = CC(C)(N)C(=O)O

Turning to “YAibEGT FISDYSIAMDAIAQQDFVNWLLAQKGKKNDWKHNITQC (Y[Aib]EGTFISDYSIAMDAIAQQDFVNWLLAQKGKKNDWKHNITQC) [SEQ ID NO: 11, GIP derivative peptide]”, in the experiment with human GIP receptor, the “In vitro activity of long-acting GIP derivative compared to human native GIP in human GIP receptor (%)” value (shortened to “In vitro activity … (%)”) was found to be 84.8%. With “YAibEGT FISDYSIALEKQAQQDFVNWLLAGGPSSGAPPPSC (Y[Aib]EGTFISDYSIALEKQAQQDFVNWLLAGGPSSGAPPPSC) [SEQ ID NO: 17, GIP derivative peptide]”, in the experiment with human GIP receptor, the “In vitro activity … (%)” value turned out to be 153.2%.

In the case of “YAibEGT FISDY SIAibLD KQAAAib EFVNW LLAibGG PSSGA PPPSC (Y[Aib]EGTFISDYSI[Aib]LDKQAA[Aib]EFVNWLL[Aib]GGPSSGAPPPSC) [SEQ ID NO: 21, GIP derivative peptide]”, in the experiment with human GIP receptor, the “In vitro activity … (%)” value is recorded as 148.5%. On the same count and under the same terms, to “YAibEGT FISDY SIAibLD KQAAAib EFVNW LLAibGH PSSGA PPPSC (Y[Aib]EGTFISDYSI[Aib]LDKQAA[Aib]EFVNWLL[Aib]GHPSSGAPPPSC) [SEQ ID NO: 24, GIP derivative peptide]” belongs 123.3%. For the substance “glucose-dependent insulinotropic polypeptide [native GIP]”, the “expression levels of inflammation-related genes IL-6, IL-12, IL-1β and TNF-α” value in the experiment on THP-1 cell line [1] is “decreased”. Besides, in the experiment on THP-1 cell line [2], the “concentration of TNF-α in the medium” value was “decreased”.
